For the test, the target named is amyloid β-peptide Aβ40, aggregating sample (soluble oligomers, early intermediates) (UniProt P05067). The experiment in a line: cell-based or functional assay.

B1: TJ10 (beta-sheet mini protein) (designed binder)
chain: MAQTFWLSIQGKTLYWQIRIYAIDAAEAEKIFKQYANDNGIDGEWTYDDATKTFTVTE
Turning to B1, the ThT fluorescence: share of Aβ40 aggregated after 18 h was 38%.

The values are drawn from patent publication US20090170069A1.
